Test results from US20140255414A1 (PROBIODRUG, published 2014).
Square brackets hold non-standard residues; d marks the D form. pGlu = O=C1CC[C@@H](C(=O)O)N1; PEG = not defined here

How the values were obtained:
[1] = target: T1, CCL8 (known as MCP-2) pyroglutamate-peptide (UniProt P80075 24-99, limits assumed, N-terminal pyroglutamate); experiment: SPR, peptide immobilized on CM5 chip (data not shown)
T1 sequence (peptide, looked up): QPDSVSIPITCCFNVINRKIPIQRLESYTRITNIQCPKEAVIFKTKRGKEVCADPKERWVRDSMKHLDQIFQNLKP

[2] = target: T2, big gastrin pyroglutamate-peptide (UniProt P01350 59-92, N-terminal pyroglutamate); experiment: as above
T2 peptide (looked up): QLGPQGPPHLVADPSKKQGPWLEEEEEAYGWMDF

[3] = target: T3, orexin A pyroglutamate-peptide (UniProt O43612 34-66, N-terminal pyroglutamate); experiment: as above
T3 peptide (looked up): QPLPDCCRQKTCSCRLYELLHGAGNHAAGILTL

[4] = target: T4, gonadoliberin pyroglutamate-peptide (UniProt P01148 24-33, N-terminal pyroglutamate); experiment: as above
T4 peptide (looked up): QHWSYGLRPG

[5] = target: neurotensin pyroglutamate-peptide (UniProt P30990 151-163, N-terminal pyroglutamate); experiment: as above
[6] = target: CCL2 (known as MCP-1) pyroglutamate-peptide (UniProt P13500 24-99, limits assumed, N-terminal pyroglutamate); experiment: as above
Chain of CCL2 (known as MCP-1) pyroglutamate-peptide (P13500 24-99 limits assumed): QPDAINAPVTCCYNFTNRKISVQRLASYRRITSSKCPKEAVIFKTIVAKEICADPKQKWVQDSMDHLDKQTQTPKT

[7] = target: T5, Aβ(pE11-30) peptide (N-terminal pyroglutamate (Aβ position 11)); experiment: SPR (Biacore 3000), purified antibody 0.04-10 µg/ml, 30 µl/min for 300 s, CM5 chip with immobilized Aβ(pE11-30); signal taken at the end of the dissociation phase, non-coated flow cell subtracted
T5 construct: Synthesized peptide; Amine-coupled to a CM5 chip for SPR, or adsorbed to the microplate for the direct ELISA
T5 peptide: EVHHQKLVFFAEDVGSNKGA
Method: Then the coupling of peptide followed. At first 10 μg/ml peptide Aβ(pE11-30) in 10 mM potassiumdihydrogenorthophosphate pH 6 was injected with a flow rate of 10 μl/min for 5 min. Because of the low signal rise the peptide was applied again with a higher concentration diluted in a solution with pH 5. 50 μg/ml peptide Aβ(pE11-30) in 10 mM sodium acetate pH 5 was injected with a flow rate of 10 μl/min for 20 min. A mild acid pH was chosen for coupling to provide a pre-concentration of the peptide (positive net charge) at the sensor surface (carboxyl group negative net charge) by electrostatic attraction. The covalent bond of the peptide was formed by the reaction of the two amino acids lysine (at peptide position 16 and 28) with the activated carboxyl group at chip surface. Excess reactive ester groups were deactivated with 1 M ethanolamine pH 8.5 with a flow rate of 10 μl/min for 10 min. Non-immobilized peptides were removed by injection of 0.1 M HCl (3×10 μl) and subsequently the chip was rinsed over night with running buffer. At the end the signal was about 1000 Response Units (RU) whereby the chip surface was saturated with the peptide.
For the measurement of anti Aβ11(pE) antibody concentration a CM5 chip, which was coated with Aβ(pE11-30) was used. The chip surface was saturated with the peptide and the signal was about 1000 Response Units (RU) (see section 1.3.3.1). […]

[8] = target: T6, Aβ(pE11-18)-PEG peptide (reading uncertain); experiment: ITC at 20 °C, peptide titrated into antibody eluted with KSCN gradient
T6 construct: The PEG attachment is not described further
T6 peptide: [pGlu]VHHQKLV-{PEG}
Method: The measurement of heat of reaction was performed at 20° C. Furthermore the heat of reaction was determined which was only generated by dilution of the antigen through the titration into ITC buffer (pH=7.1). Therefore the antigen was injected into the sample cell filled with ITC buffer. The heat of reaction which was generated during the titration of the antigen to the antibody was corrected about this value. The analysis of raw data and the determination of the association constant (KA), reaction stoichiometry (n), binding enthalpy (ΔH) and entropy (ΔS) was performed with Origin Software of MicroCal.
To characterize the binding of anti Aβ11(pE) antibody at the Aβ(pE11-18)-PEG peptide the method of Isothermal Titration calorimetry (ITC) was used (see section 1.3.4). The antibody which was eluted from protein G column with KSCN-gradient (pH 7.0) and 0.1 M glycine-HCl (pH 2.7) was analyzed. With ITC the reaction stoichiometry (N), association constant (KA), binding enthalpy (ΔH) as well as the entropy (ΔS) were determined. The peptide was titrated to anti Aβ11(pE) antibody in the ITC MicroCalorimeter as described in section 1.3.4.2. […] The reaction partners interact and heat is released or absorbed in direct proportion to the amount of binding events. Each injection of antigen leads to change of temperature. To compensate the temperature difference between the sample and reference cell the addition or removal of heat to the sample cell occurs and serves as measurement signal.
At first the heat of the Aβ(pE11-18)-PEG dilution in ITC buffer was determined (see FIG. 16, upper trace). […] Afterwards the peptide Aβ(pE11-18)-PEG was titrated to anti Aβ11(pE) antibody in the sample cell (see FIG. 16, lower trace). The total heat release after each injection was determined by integration of the area between each peak and baseline. Then the heat of dilution (see FIG. 16, upper trace) was subtracted from the total heat release of each injection.

[9] = target: T7, AβpE(3-40) peptide (N-terminal pyroglutamate (Aβ position 3)); experiment: SPR, 1 µg/ml antibody over immobilized AβpE(3-40) against immobilized AβpE(11-30)
T7 construct: Immobilized on a CM5 chip at 1830 RU; also called Aβ3(pE); Aβ N3pE-40
T7 sequence (peptide, as listed by the source): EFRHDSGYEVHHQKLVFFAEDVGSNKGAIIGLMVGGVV

B1: monoclonal mouse anti Aβ11(pE) antibody Aβ 13-11-6 (clone 13), Deposit No. DSM ACC 3100 (antibody, V domains shown)
VH: QVQLQQPGTELVKPGASVKLSCKASGFTFTSYWMHWVRQRPGQGLEWIGEINPSNGRTNYNEKFKSKATLTVDKSSSTAYMQLSSLTSEDSEVYYCARGDLAWDWSAYWGQGTLVTVSA
VL: DIVMSQSPSSLAVSAGEKVTMSCKSSQSLFYSRTRKNYLAWYQQKPGQSPKLLIYWASTRESGVPDRFTGSGSGTDFTLTISSVQAEDLAVYYCKQSYNLWSFGGGTKLEIKR
notes: The KSCN-eluted and glycine-HCl-eluted preparations are the same molecule; also called pEVHH-59025 13-11-6; mAb mouse anti Aβ11(pE)
[1]
  binding result: no binding (tested: 1 µg/ml antibody)
[2]
  binding result: no binding (tested: 1 µg/ml antibody)
[3]
  binding result: no binding (tested: 1 µg/ml antibody)
[4]
  binding result: no binding (tested: 1 µg/ml antibody)
[5]
  binding result: no binding (tested: 1 µg/ml antibody)
[6]
  binding result: no binding (tested: 1 µg/ml antibody)
[7]
  EC50 (read off the curve): ~1 µg/mL
[8]
  -TΔS: -1.27 kcal/mol
  Ka: 1.27e+07 M⁻¹
  Stoichiometry (N): 1.88
[9]
  cross reactivity relative to AβpE(11-30): 4 magnitudes lower
